Residue numbers refer to the chain shown, from its start.
B1: 1-30 (antibody, V domains shown)
VH: EVQLLESGGGLVQPGGSLRLSCAASGFTFSSYAMTWVRQAPGKGLEWVSAISGSGGSTFYADSVKGRFTISRDNSKNTLYLQMNSLRAEDTAVYYCTRPPYGDYGDYWGQGTLVTVSS
VL: QSALTQPASVSGSPGQSITISCTGTSRDVGSYNLVSWYQQHPGKAPKLMIYEGTKRPSGVSNRFSGSKSGNTASLTISGLQAEDEADYYCCSYAGSRTPVVFGGGTKLTVL
B2: 1-31 (antibody, V domains shown)
VH: B1 VH with T35N
VL: B1 VL with R27S, S31K, T54S, K55Q
B3: 1-3 (antibody, V domains shown)
VH: EVQLLESGGGLVQPGGSLRLSCAASGFTFSSQAMSWVRQAPGKGLEWVSAISGSGGGTYYADSVKGRFTISRDNSKNTLYLQMNSLRAEDTAVYYCAKDRRFGEFDPWGQGTLVTVSS
VL: B1 VL with T25I, R27S, R97S, T98S, P99F
B4: 1-28 (antibody, V domains shown)
VH: EVQLLESGGGLVQPGGSLRLSCAASGFTFSSYGMSWVRQAPGKGLEWVSAISGSGGGTYYADSVKGRFTISRDNSKNTLYLQMNSLRAEDTAVYYCASSSSWQFDYWGQGTLVTVSS
VL: B1 VL with R27S, D28G, T54S, K55Q, R97S, P99H, V100Y
B5: 1-4 (antibody, V domains shown)
VH: B3 VH
VL: B1 VL with R27S, S31T, T54S, K55Q, R97S, T98S, P99F
B6: 1-32 (antibody, V domains shown)
VH: B1 VH with T35Y
VL: QSALTQPASVSGSPGQSITISCTGTSSDVGGYNLVSWYQQHPGKAPKLMIYEGNKRPSGVSNRFSGSKSGNTASLTISGLQAEDEADYYCCSYAGSSTFPVVFGGGTKLTVL

target: COVID S1 RBD Fc fusion (Antigen 1) (SARS-CoV-2), P0DTC2; assay: phage ELISA; conditions: remark: other sources report otherwise

Binder	ELISA fold over background (fold over background)
B1	1.7
B2	1.3
B3	1.8
B4	1.1
B5	1.4
B6	1.5

target: SARS-CoV-2 S protein trimer (SARS-CoV-2), P0DTC2; assay: column DC/S-T (format not explained); conditions: remark: other sources report otherwise

Binder	Kd
B1	476000 nM
B3	5310 nM
B4	96.6 nM
B5	129 nM

target: SARS-CoV-2 S protein trimer (SARS-CoV-2), P0DTC2; assay: column Fc/S-T (format not explained); conditions: remark: other sources report otherwise

Binder	Kd
B3	10 nM
B4	8.6 nM
B5	12.3 nM

target: SARS-CoV-2 S protein trimer (SARS-CoV-2), P0DTC2; assay: ELISA on coated S trimer; quantity not named; conditions: remark: other sources report otherwise

Binder	S Trimer
B1	4.02 nM
B2	0.8 nM

target: SARS-CoV-2 S protein trimer (SARS-CoV-2), P0DTC2; assay: column DB/S-T (format not explained); conditions: remark: other sources report otherwise

Binder	Kd
B3	423 nM
B4	13.4 nM
B5	6.6 nM

Reference: patent US20210395344A1
